This note sets out measurements from paper PMC11209935 (Cell, 2023).

For the test, the target named is RPA1 (subunit of recombinant RPA and Alt-RPA) (human, UniProt P27694 1-616). The experiment in a line: mass photometry.
Sequence of RPA1 (subunit of recombinant RPA and Alt-RPA) (P27694 whole entry): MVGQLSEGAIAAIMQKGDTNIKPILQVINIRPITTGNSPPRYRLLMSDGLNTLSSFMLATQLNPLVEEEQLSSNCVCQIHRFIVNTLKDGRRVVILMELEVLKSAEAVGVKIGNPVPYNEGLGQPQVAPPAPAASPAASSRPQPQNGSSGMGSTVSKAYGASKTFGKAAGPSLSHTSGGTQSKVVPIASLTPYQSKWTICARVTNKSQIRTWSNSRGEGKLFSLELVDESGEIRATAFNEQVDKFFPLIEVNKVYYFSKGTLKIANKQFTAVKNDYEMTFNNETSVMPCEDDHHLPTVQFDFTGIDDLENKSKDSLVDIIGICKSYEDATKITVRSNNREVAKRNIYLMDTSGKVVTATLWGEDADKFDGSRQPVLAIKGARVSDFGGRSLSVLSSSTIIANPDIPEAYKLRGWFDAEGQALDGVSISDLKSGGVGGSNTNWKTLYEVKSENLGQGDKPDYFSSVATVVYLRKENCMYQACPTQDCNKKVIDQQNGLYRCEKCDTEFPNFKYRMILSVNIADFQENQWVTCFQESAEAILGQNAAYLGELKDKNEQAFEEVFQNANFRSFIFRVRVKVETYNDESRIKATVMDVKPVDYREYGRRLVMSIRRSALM

B1: RPA4 (subunit of recombinant Alt-RPA) (natural protein, human, UniProt Q13156 1-261, looked up)
chain: MSKSGFGSYGSISAADGASGGSDQLCERDATPAIKTQRPKVRIQDVVPCNVNQLLSSTVFDPVFKVRGIIVSQVSIVGVIRGAEKASNHICYKIDDMTAKPIEARQWFGREKVKQVTPLSVGVYVKVFGILKCPTGTKSLEVLKIHVLEDMNEFTVHILETVNAHMMLDKARRDTTVESVPVSPSEVNDAGDNDESHRNFIQDEVLRLIHECPHQEGKSIHELRAQLCDLSVKAIKEAIDYLTVEGHIYPTVDREHFKSAD
B1: the binding result was “binds”.
